Reference: US20130040894A1, “INHIBITION OR ACTIVATION OF SERINE/THREONINE ULK3 KINASE ACTIVITY” (TALLINN UNIVERSITY OF TECHNOLOGY, priority 2009, published 2013)

Tests used:
[1] = system: GLI1 in nuclear extracts of Cos1 cells; test: Cell fractionation analysis with WB; assay type: cell-based, primate; conditions: cotransfected with FLAG-tagged GLI1 in Cos1 cells, lamin A/C loading control
Procedure: Cos1 cells were transfected with FLAG-tagged expression constructs for GLI1 combined with ULK3, ULK3(K139R) or empty vector in ratio 1:1 on 10 cm plates. Nuclear and whole cell extracts (NE and WCE, respectively) were prepared as described in [36]. All extracts were normalized for protein amounts measured using […] kit (Thermo Scientific). A total 10 μg of protein were separated by SDS-PAGE and transferred to the PVDF membrane (Millipore, Billerica Mass., USA). The membrane was segmented according to the expected size of the detected proteins. Obtained strips were probed with the appropriate antibodies.
WB was performed using a non-blocking technique as described in [37]. Mouse monoclonal M2-anti-FLAG antibody (Sigma-Aldrich) was used for detection of FLAG-tagged GLI1, GLI2, GLI3, ULK3, ULK3(K44R) and ULK3(K139R) by WB in dilution 1:2000. Lamin A/C was detected with mouse monoclonal anti-Lamin A/C antibody (Upstate, Billerica Mass., USA) diluted 1:1000. Mouse monoclonal anti-His antibody (Novagen, Darmstadt, Germany) diluted 1:1500 was used for detection of bacterially expressed and purified GLI1 fragements. […]
To confirm the data from the immunofluorescent staining, we performed cell fractionation analysis. […] Expression of lamin A/C was analyzed as a loading control. ULK3 and ULK3(K139R) were detected mostly in WCEs.

[2] = system: GLI1 mRNA expression in HEK293 cells; test: Quantitative RT-PCR of endogenous GLI1 mRNA expression; assay type: cell-based, human; conditions: normalized by HPRT; for induction of endogenous GLI1 expression: 72 h; for endogenous GLI1 expression level relative to empty vector: FIG. 5B
Procedure: HEK293 cells were transfected with FLAG-tagged wt ULK3, ULK3(K139R) or respective empty vector in two replicates. After 5 h of incubation one replicate of cells transfected with the vector was induced by SHHC24II. The cells were incubated 24 h and 72 h, washed with PBS. Total RNA was isolated and treated with DNaseI using RNAqueous kit (Ambion) according to manufacture's instructions. cDNA of 2 μg total RNA was synthesised using SuperScript III kit (Ambion). Levels of GLI1 mRNA and mRNA of housekeeping gene HPRT used for normalization were detected in triplicates by quantitative Real-Time PCR. The following GLI1 primers were used for the assay: […]
HEK293 cells were transfected by ULK3 or respective empty vector. Cells transfected with empty vector were induced by 12 nM of SHHC24II and were used as a posititve control. Cells were incubated 24 h and 72 h, and total RNA was isolated. Level of GLI1 expression was measured using QRT-PCR procedure and the obtained data was normalized by expression of housekeeping gene HPRT. Level of GLI1 expression in cells transfected with empty vector was taken as 1.

[3] = system: GFP-tagged GLI2 localization in NIH3T3 cells; test: Immunofluorescence assay, subcellular localization of GFP-tagged GLI2; assay type: cell-based, mouse; conditions: coexpressed with GFP-tagged GLI2 in NIH3T3 cells
Procedure: NIH3T3 cells were transfected with GLI1GFP and FLAG-tagged expression constructs for ULK3 or ULK3(K139R) in ratio 1:1 on 8-chamber slides (Falcon, BD Biosciences, San Jose Calif., USA). The cells were fixed with 4% paraformaldehyde and washed three times for 5 min with Stain Wash Medium (SWM) (0.5% BSA and 0.01% NaN3 in PBS). Subsequent permeabilization of cells was performed at RT by 10-min incubation in. PBS supplemented with 0.5% Triton X-100. Afterwards, the cells were washed three times for 5 min with SWM, blocked for 30 min in PBS containing 5% bovine serum albumin (BSA), and incubated with mouse monoclonal M2-anti-FLAG antibody (diluted 1:1000 in SWM) for 1 h at RT with gentle agitation. […] GLI1GFP protein localization was assessed in at least 200 FLAG-positive cells under a fluorescent microscope Olympus BX61 with UPLan SApo 40× objective, and the experiment was repeated three times. […]
Next we examined if overexpression of ULK3 kinase influences the subcellular localization of GLI1 and GLI2 proteins. […] Subcellular localization of GLI1 and GLI2 was determined, and average values were calculated from three independent experiments. […] Overexpressed GLI1GFP was detected both in cytoplasm and nucleus (FIG. 3A). […]

Molecule | amount of GLI1 in nuclear extracts [1] | induction of endogenous GLI1 expression [2] | endogenous GLI1 expression level relative to empty vector [2] | influence on GLI2 subcellular localization [3]
ULK3: human serine/threonine kinase, 472 amino acids (SEQ ID NO: 1), overexpressed from cloned cDNA or immunopurified FLAG-tagged (protein, listed as Homo sapiens, PEPTIDE (1)..(472) ULK3) MAGPGWGPPRLDGFILTERLGSGTYATVYKAYAKKDTREVVAIKCVAKKSLNKASVENLLTEIEILKGIRHPHIVQLKDFQWDSDNIYLIMEFCAGGDLSRFIHTRRILPEKVARVFMQQLASALQFLHERNISHLDLKPQNILLSSLEKPHLKLADFGFAQHMSPWDEKHVLRGSPLYMAPEMVCQRQYDARVDLWSMGVILYEALFGQPPFASRSFSELEEKIRSNRVIELPLRPLLSRDCRDLLQRLLERDPSRRISFQDFFAHPWVDLEHMPSGESLGRATALVVQAVKKDQEGDSAAALSLYCKALDFFVPALHYEVDAQRKEAIKAKVGQYVSRAEELKAIVSSSNQALLRQGTSARDLLREMARDKPRLLAALEVASAAMAKEEAAGGEQDALDLYQHSLGELLLLLAAEPPGRRRELLHTEVQNLMARAEYLKEQVKMRESRWEADTLDKEGLSESVRSSCTLQ | retained most of the GLI1 in the nuclei | able to induce | approximately 6 times | not altered
ULK3(K139R): kinase-deficient ULK3 mutant with Lysine at position 139 mutated to Arginine (SEQ ID NO:7) (protein, MUTAGEN (1)..(472) mutated ULK3 protein ULK3 (K139R)) MAGPGWGPPRLDGFILTERLGSGTYATVYKAYAKKDTREVVAIKCVAKKSLNKASVENLLTEIEILKGIRHPHIVQLKDFQWDSDNIYLIMEFCAGGDLSRFIHTRRILPEKVARVFMQQLASALQFLHERNISHLDLRPQNILLSSLEKPHLKLADFGFAQHMSPWDEKHVLRGSPLYMAPEMVCQRQYDARVDLWSMGVILYEALFGQPPFASRSFSELEEKIRSNRVIELPLRPLLSRDCRDLLQRLLERDPSRRISFQDFFAHPWVDLEHMPSGESLGRATALVVQAVKKDQEGDSAAALSLYCKALDFFVPALHYEVDAQRKEAIKAKVGQYVSRAEELKAIVSSSNQALLRQGTSARDLLREMARDKPRLLAALEVASAAMAKEEAAGGEQDALDLYQHSLGELLLLLAAEPPGRRRELLHTEVQNLMARAEYLKEQVKMRESRWEADTLDKEGLSESVRSSCTLQ | significantly lower amounts of GLI1 | failed to activate | failed to activate | not altered
